Data on one substance can be found in paper PMC4873313.

As usually defined, the Kd is the concentration at which binding is half-saturated. A higher Kd goes with weaker binding.

Like-named read-outs stand apart in the source and are kept apart here.

Assay [1] deals with aryl hydrocarbon receptor nuclear translocator PAS-B E362R, conjugated with Alexa-Fluor 488. Description: MST.
For assay [2] the target is unchanged. The assay is described as follows: MST. The source holds these as a separate data set.
The target of assay [3] is aryl hydrocarbon receptor nuclear translocator PAS-B E362R. Description: ITC. In general terms: Isothermal titration calorimetry measures the heat released or taken up as one component is titrated into another.
The target of assay [4] is aryl hydrocarbon receptor nuclear translocator PAS-B E362R, conjugated with Alexa-Fluor 488. The assay is described as follows: MST. The source holds these as a separate data set.

In the case of HIF-2α PAS-B R247E (domain or fragment), the equilibrium dissociation constant (Kd) came to 170 nM in assay [1], 250 nM in assay [2], 560 nM in assay [3] and 820 nM in assay [4]. Moreover, the dH in assay [3] came out at 4.4 kcal/mol.
